The values below come from the supplement of paper PMC10567573.

A short description of this data set: protein stability index of a GFP-peptide fusion (GPS, HEK-293T) (PSI 1-6); higher = more stable. The following applies: c terminus: native.
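Further: lentivirally expressed fusion library, cells FACS-sorted into six equal-sized GFP/DsRed ratio bins, PSI computed from sequencing read fractions per bin weighted by bin number.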

In the case of HSLRAVSTDPPHHDHHDEFCLMPN [BEX2 addN], the protein stability index (parent: NP_116010.1) is 4.18.

On to DGWIRVSSDNVADLHEKYSGSTPV [PSMB5 addV], for which the protein stability index (parent: NP_002788.1) was 4.27.

On to CQPISFSGFGAEDDDLGGLGLGPN [POLD2 addN], for which the protein stability index (parent: NP_006221.1) came to 1.99. Turning to CQPISFSGFGAEDDDLGGLGLGPV [POLD2 addV], the protein stability index (parent: NP_006221.1) stood at 3. Regarding LPALFTDLYSQEITAEEAREALPV [SNF8 addV], the protein stability index (parent: NP_009172.2) is 3.9. Consider DGWIRVSSDNVADLHEKYSGSTPN [PSMB5 addN], for which the protein stability index (parent: NP_002788.1) worked out at 4.04. On to LPALFTDLYSQEITAEEAREALPN [SNF8 addN], for which the protein stability index (parent: NP_009172.2) is 4.75. As for EQRNSRWNTVLRAVKAKTHHLEPV [TRPA1 addV], the protein stability index (parent: NP_015628.1) is 4.23. Still for that read-out and setting: next, EQRNSRWNTVLRAVKAKTHHLEPN [TRPA1 addN]: 4.57. HSLRAVSTDPPHHDHHDEFCLMPV [BEX2 addV]: the protein stability index (parent: NP_116010.1) amounted to 3.68.
